Experimental data published in the domain aggregation screens of Martell et al. (2025).

Experiment: soluble fraction after stress (log2 fold change); higher = more stays soluble; pooled small domains, quantitative proteomics
Conditions: stress: 50 degC
How it was run: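 Quantitative proteomics served as the high-throughput read-out for pooled custom libraries of small protein domains. Each was stressed at 50°C. Aggregation propensity is expressed as the base-two log fold change in soluble protein after stress. A higher value means a larger share of the protein remains in solution.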

| Sequence | soluble fraction (log2) |
| --- | --- |
| HMRLPAISYSFARKHGVVLRLDGDRPVASLREGADPAILIEVKRHLDGAMGVEKVSEAAFDQLLSTTYA | -0.484 |
| HMEVSKETFPAYVAVDSLPVYKSASTSSSKVTTIDFGREVTVVETRGGWAKIQYGSYKGFAEIEGMSKN | -0.368 |
| HMVNYKEILRLSAEGNSQRQIAAGSGNSRNTVIEVLEAARARGITWPLDEPVTNEQLEAILFPNRY | 0.134 |
| HMSIEIIEITSNSSPKNLSEIIDIDATQIVADLMGLGIMKAIDTPLENSEIEQLLEKYNLIAEFVE | -1.47 |
| HMKQLIGYSVIDIKMGKLGEISFVNSKTAQALIHVSKDGKGFYFPWHKQFVKNIDAEKGIMEVEIPKEFLD | -0.237 |
| HMIEGEQVRLLRLLERQEGGMLPLGDKSPASDILLLTGMSKKTFKMAVGALYKAQMITMTPTSIKLVK | -0.684 |
| HMADYSMDDNAWNAKKADIDEWFEANPDFSANKAITDGLFSIGDSQVEMRKRYWASIAGVFAGLPNSPIG | -0.152 |
| HMIMTTKVSGIMFDKFNPSAILNINGMDYLVRSGDIINGYKILSIGQETVTVQYGANVYKASVG | -2.26 |
| HMEPTLVVARDKDAKSPLVAKLMKELGVDAAPRVIVDDSVIGGAKLSHNHTEIDATYKTALINLYQAIT | 0.126 |
| HMQNLSELAYVNLRDALMQGQMKPGEELPLRPISRSFGISATPMREALLRLVTESALEMDSRGRISVP | -0.341 |
| HMPYNRRYLISNADGALYTVEENGLVKLEETNLTAELFETRGMQDIPDGKLLITLHDPTILYWHDSENLFP | -1.19 |
| HMPDLSAEERNIVEALQKSNDLQVNLIAVKTGMDMGTLSATLFGLEMKGLVKLMAGGTYHLI | -0.141 |
| HMDKSFYETFEKIGHGDFDKGLNHVWQHANDGNGTATLLLSKLFLEFGDLDNFEKYLNISAEQSNPVAMKI | -0.305 |
| HMGEPVNSPMPGTILRVEVTQGAAVKEGQLLVVLEAMKMENEILAPKDGTVAQVVVQKGSHVETGSPLIVL | -0.217 |
| HMQVTGLTAENAHRVTMIREKGTDHPPVPFHFRKEHHGTGNYVHLYGNPEDRNELHSRDFKDWEAVAFK | 0.25 |
| HMLDKKKHLEQGRKIIEDQLAKYKIQPSFDTLKKLSAYYGLNNKEQLYAQVGMGFLELENLDEILQ | ≥ 0.62 |
| HMREEMYGLIGFITTSEVTDTFGQMEIKLENEPEMRINVRTNPGESLARGDAAKIISFNNSNGTFLVELTK | -0.474 |
| HMDVNAQAGYDKLQSNQLDGARHDYEQALKTDPNNVDTLLALAAIAQRQGRSADADGYRQRAIDAD | -0.124 |
| HMLINIKTNSAVNVRSGPGMGFEVVNTYPSGYILQAKEMQKDGGDNVWYKVKDGWLSANYTIDI | -0.198 |
| HMRRMTEEQSKLFQGLVSIVQTTLVADMEKGAVTPLLIAEKVDFVADNLYPGKDIDRKEAVAELIRRFSLW | -0.339 |
| HMQQDVLKLKSGGNYKGEYINIESAYVLFKPEGGNATQRIKVNEIQMLKLADGTEVIFGGRVK | 0.0478 |
| HMSLSEYLSAPVLEGQRNHALFSAVMQAREQGWDEWQIRTTIGAKAEADGLRHAEIAATIRSAMSREITP | -0.121 |
| HMSQPYFELAAADMEALRNALSTIREIESVVLSGKIFHVEVREDLDPGTMNKLAFERGITLTHLVKKKN | -0.0763 |

| Sequence | soluble fraction (log2) |
| --- | --- |
| HMSVDEVEALYLKIAEDRLEGKLPDKVSESDLMRRYGLTKAQLGAILQRIVHEGWIERTPGHGWRFLPIL | -0.259 |
| HMKITADQEIETAINYFKKSIAEKGWKGVNPDEFKQMNDYLSETFGYSATIKFQKALDEQGLMVDE | 0.0602 |
| HMKVELSENEKIIYDLLSNQEVLLSEIKDKAELSNKAWDKSTKSLRKLGLVIVEKKDDNIYISKS | -0.362 |
| HMTDTSFPRLGAPEEELLSFLAKWEIDAEDAHYTKFSLYYQSTGKMMRDWKATWRAWKERQSELNAQR | -1.68 |
| HMDDSSLFGRHTGIGFIVDDIDSGYQTLLAKGVSFEMPPTEQPWGGILALMKDPDGNIFYLD | -0.0639 |
| HMQTQYIVDTKTTLLVRTGPGKSNSQFGRLKNGETINVYAIKNGWAEISYNGKTGYVSEQYIKLA | -3.12 |
| HMLSYFKIIKNGLVREGPASYYKIAENLEIGTIVQAFEKHDDWYLIKTHSGRIGWIVASDVTPQV | -0.245 |
| HMKKRDANSQGTRLILFYMLQRLHTEYKLQGFVTYNQRRSFREIYDAYHALGGNGFGTAMWEEVKELDLK | -1.43 |
| HMHIDQVIRERRLALGLTQEELANKIGVSAPAVSKWEKRVSYPDITLLPALARILGTDVNTLLTFS | -0.365 |
| HMTRAETPMAFIRAMVEAYTERGLDPNQALRKAQITPSQLKSTNARVTTLQMEWMSETAMREL | 0.0088 |
| HMKSEMYIDLSNALLKMSERDKELLTYRYTMEMSSKEISQITGIKESNVNSYIRRAREKLLKIFNAMNK | -3.04 |
| HMVPTATVGENTSTLPVRQLPGGPVLVVLVRGDIVLPLPGHAFQNGDVWREISTVNGVIGWVPDEFLDY | -1.9 |
| HMKLPNSFGSIQKLSGNRRKPYRVVKTIGWDENGKQIRKTLGYYETRAKALQELALFNEKPYD | -0.804 |
| HMNENDPRVIKTRRLLLDSFVVLVRKKDFTSISVKDITDSAQVNRATFYAHFQDKYDILEYMVID | 0.112 |
| HMTTLAADFNSDGRVDIGDLSILAGNWGKSRTNEVDFNKYGDADYNGRIDIIDLSILATQFGQTDNSN | -0.0889 |
| HMDANLGEIFKVYEQEIGALTPFVREEMLDAIDHYPRDWILDAIRESAKSNARNWKYTLAILKRWKAEG | -0.312 |
| HMELKYIDYDEALVVYAKTVTASGGGLSGVKDEGGIRKVLDFVQNDLYYPTFVDKLTYLVFGL | 0.103 |
| HMKAEKEIEKIKFTIYNEFKRKQEENHFLPPWDGTKMLRQFVLGVVANNPKYQHVNTDILYRDLLLLYYQ | -0.968 |
| HMPYSPTPGSAPARLIAHLQEHGDSVNRTAIAELLQVDRKNVHNYLARAVTHGLLLRHGGGAYSLP | 0.086 |
| HMEEQKYEYHLGDVVYLGVDKYEILGITNNIVTLYDPEFPLLNKQLDFDEFEKRVKDNYANEHLKVT | -0.429 |
| HMRDYKTALQEWVQRTPGQPIAYRLVDELGPDHARVFVMEVTVGGQSAGQGRGRTKKEAEQLAARAALEKL | -0.0907 |
| HMITKENYLEKIKEIKVNEFPASMRELYDFFNEATRNGTDWSAYEEGNVKYVVDAYLERLNLLYKSN | -0.175 |
| HMEGGLIMDRIEKGLQSGVMPDLRGLNLKDALYLLESYVQVQVIGSGGVIKQSIKTGDKFIMGSVIKLEL | -0.0813 |

| Sequence | soluble fraction (log2) |
| --- | --- |
| HMAGPVLTPEEAEVLRILADHGEMTVDNISAEGKMSAAVVLRGLGVLSAYGLVAPGGPGRWRSE | -0.253 |
| HMRGDEDTGVWPTPMKRAYIDSLLKGYPTGVTMIVKPPGASHTTKWMILDGANRARALRDFMNDEFMI | -0.163 |
| HMYGTERILAQLANYGIPNKLAFQIQDFYKEETLQIVEQQPYRLVEDIQGMGFKIADQLAEELGI | -0.317 |
| HMPLDPFVVDALRDEIINTIKQHEPRVDLQKVQVQPIYTQNRVNISVQYKIVGLPIVEDITFVLQRP | -0.0764 |
| HMNNKVAVKSGYYFEIFNKEEIPTTLAKTKQKVKINNIQYDLYQGMSLDDERKIDDMFGDRMGYSIDDY | -1.04 |
| HMGFEALRSRHRITAREMEVLQHMLAGRSNAEIGHTLGLSERTVKTHITSIFNKLGVDSRAQLGYMLK | -0.498 |
| HMGTYSKQDLLQLIGRYPDGIGKREINLAFSKGTKIRNLLNIELNELLNERLITLSQGGLYIKP | -1.56 |
| HMEKAISSLTLEEAKKRLEMVRSEKDASLQIYKETGSETARVTAENYGKEENSLLLHISEMSNIV | -0.469 |
| HMAGIPIHMSQLKQIILLLSQGYPIKGIARETGVSRNTIKGYLQTLTSQDLNVTDALKLENIQLEYLLRSP | -1.65 |
| HMGETRWTYDDFGNILTEKAAPYSATEFLGKTYTYDTDNRYLKTVTDALGRTTTTLSYDKYGNPLSVMD | 0.101 |
| HMNRREFQFSEGSSNKFWSIELRDQSFIVHYGKIGTNGQAQEKTFATADAAKKEHDKLIAEKTKKGYVEVQ | -0.392 |
| HMEFFIIDHNGQQAGPFSFDQLVQKGISPETLVWKQGMADWNPAWKVEELKAVLEAVEANQSNQKAQ | 0.462 |
| HMRNSSLQTDLELRAYVIDGLNHFWTPEEIAGRWSLAHPDRPVSFATIYRHIKRKLLPGIEPKTHLRRRGK | -2.55 |
| HMINKQPKDYEYFLEKWHFTQTEKHQLHNLILKLNIRYPNKDFLKITENLDNGKLVLKKLEERLSKT | -1.05 |
| HMEKRLDYTFGLNKEQLLYLTKSIKDGDFYNVSFIDGTEKKLNRVGSTKEVHKYVNFLMTNDGIVKK | 0.0518 |
| HMTGYVMIRVDGLSLEKFLNMAAEAGVRVSDVRRASYTVLYAVVSPRDLKKLQSVAPEKYTVTVR | -0.664 |
| HMFAADIGVGIVDADSLRVRSEPSTGAPIVTSLLRGTQVTVQEKLDGWYRITYNDVSGFVSAEYLIFTADE | -0.241 |
| HMRDTLSKQLLTEEMVLQFIREMREHDPGIGGEKLHAMYLGRFGRDYEYMVGRDKMEMIIAENNLNVR | -0.736 |
| HMPEVYPFEVAEDDAGKRLDVFLSEEIEEFTRSFIQKLIAGGLASVNRAPARASYRVKPRDLVELQVPE | -0.448 |
| HMSPFYILDEVEAALDDTNLGRLLEIYEELRENSQLLVITHQKRTMEVGDALYGVTMRGDGVSAVISQRLR | 0.303 |
| HMDYQYILVDVKDRIATVTINRPEYSNAFARESYYEIADAMNTLGARDDVGVIVITGAGKHFSAGGDIKRF | -0.534 |
| HMSKQIEVPDVTDMTVSDAIDVLQDKGFVVSDEQKEVASSEIEEGRVVRTSPAVGSKRKDGTVVTLYVSI | 0.045 |
